Source: the supplement of paper PMC6757056
± gives the standard deviation of the averaged measurements.

B1: library; a variant is named by its letters at N, in order (parent)
chain: GCUGUCACCGAGAAACUGUGAAGUAUAUCUUAAACCUGGGCACUUAAAAGAUAUAUGGAGUUAGUAGUGCAACCUGCUCGGUCUGAUGAGUCCNNNNNNGGACGAAACAGC

How the values were obtained:
[1] = variants of: B1; test: normalized RNA/DNA level without ligand (relative to sTRSVctl = 100) (log10 (% of sTRSVctl)); HEK293T; ligand: cyclic di-GMP (c-di-GMP-II aptamer); higher = less ribozyme self-cleavage, higher mRNA level; conditions: reporter: mCherry (pCS4076), ligand present: no
In short: (§1)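 Library plasmids encoding reporter-linked ribozyme switches (mCherry, or eGFP for some folinic acid experiments) were transfected into HEK293T at 4 µg per 6-well well. Ligand, when used, was added 1 h before transfection. Total RNA was extracted with EDTA 72 h later, then reverse-transcribed, amplified, barcoded and sequenced. RNA level was RNA reads over DNA reads, divided by a spiked-in non-cleaving control (or the top 25 sequences), ×100, log10; only sequences with ≥100 DNA reads were kept.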

[2] = variants of: B1; test: normalized RNA/DNA level with ligand (relative to sTRSVctl = 100) (log10 (% of sTRSVctl)); HEK293T; ligand: cyclic di-GMP (c-di-GMP-II aptamer); ligand concentration (+) RNA-Seq: 1 mM; higher = less ribozyme self-cleavage, higher mRNA level; conditions: reporter: mCherry (pCS4076), ligand present: yes
In short: as §1

Variant | normalized RNA/DNA level without ligand (log10) [1] | normalized RNA/DNA level with ligand (log10) [2]
CCGUGG | 1.53 ± 0.061 | 1.69 ± 0.14
CCGUGU | 1.66 ± 0.039 | 1.86 ± 0.095
CCGUGC | 1.58 ± 0.036 | 1.76 ± 0.086
UCUUAU | 1.683 ± 0.012 | 1.85 ± 0.14
UCUUAC | 1.704 ± 0.017 | 1.86 ± 0.054
UCUUAA | 1.64 ± 0.07 | 1.81 ± 0.044
ACUCUG | 1.602 ± 0.0083 | 1.81 ± 0.096
ACUCUC | 1.77 ± 0.076 | 1.86 ± 0.12
ACUCUA | 1.6 ± 0.046 | 1.77 ± 0.081
ACUUGG | 1.59 ± 0.048 | 1.75 ± 0.13
ACUUGU | 1.668 ± 0.004 | 1.83 ± 0.1
ACUUGC | 1.69 ± 0.029 | 1.83 ± 0.084
ACUUGA | 1.49 ± 0.11 | 1.72 ± 0.13
CGAACU | 1.48 ± 0.18 | 1.72 ± 0.042
CGAACC | 1.679 ± 0.01 | 1.8 ± 0.098
CGAACG | 1.75 ± 0.056 | 1.9 ± 0.089
ACGUGC | 1.59 ± 0.036 | 1.8 ± 0.065
UCUGGA | 1.58 ± 0.054 | 1.79 ± 0.1
UCUGGC | 1.78 ± 0.025 | 1.88 ± 0.068
UCUGGG | 1.74 ± 0.026 | 1.88 ± 0.059

Variant | normalized RNA/DNA level without ligand (log10) [1] | normalized RNA/DNA level with ligand (log10) [2]
UGAACC | 1.78 ± 0.022 | 1.86 ± 0.12
UGAACA | 1.75 ± 0.037 | 1.87 ± 0.074
GCUAAG | 1.49 ± 0.032 | 1.71 ± 0.1
GCUAAC | 1.49 ± 0.023 | 1.7 ± 0.15
GCUAAA | 1.46 ± 0.085 | 1.67 ± 0.11
ACUAAC | 1.607 ± 0.015 | 1.76 ± 0.15
UCUCUG | 1.718 ± 0.015 | 1.87 ± 0.14
UCUCUC | 1.81 ± 0.069 | 1.9 ± 0.12
UCUCUA | 1.666 ± 0.0017 | 1.82 ± 0.12
UCUCUU | 1.74 ± 0.039 | 1.86 ± 0.089
GCUGUC | 1.43 ± 0.14 | 1.72 ± 0.024
ACUGUC | 1.63 ± 0.036 | 1.8 ± 0.15
ACUGUU | 1.452 ± 0.011 | 1.67 ± 0.13
ACUGUG | 1.6 ± 0.038 | 1.76 ± 0.11
CCUCGA | 1.71 ± 0.058 | 1.84 ± 0.093
CCUCGC | 1.745 ± 0.0039 | 1.82 ± 0.14
CCUCGG | 1.838 ± 0.011 | 1.94 ± 0.025
CCUCGU | 1.75 ± 0.057 | 1.86 ± 0.084
GCUACC | 1.67 ± 0.065 | 1.84 ± 0.098
GCUACU | 1.66 ± 0.019 | 1.81 ± 0.1

Variant | normalized RNA/DNA level without ligand (log10) [1] | normalized RNA/DNA level with ligand (log10) [2]
GCUACA | 1.583 ± 0.0028 | 1.79 ± 0.072
GCUAGC | 1.696 ± 0.0018 | 1.8 ± 0.17
GCUAGG | 1.54 ± 0.12 | 1.7 ± 0.062
GCUAGU | 1.58 ± 0.069 | 1.78 ± 0.086
CCUCUA | 1.427 ± 0.0066 | 1.68 ± 0.13
CCUCUC | 1.79 ± 0.053 | 1.89 ± 0.14
CCUCUU | 1.63 ± 0.017 | 1.81 ± 0.15
CCUCUG | 1.63 ± 0.058 | 1.81 ± 0.1
AGAACG | 1.463 ± 0.001 | 1.67 ± 0.094
GCUCAA | 1.6 ± 0.023 | 1.79 ± 0.072
GCUCAG | 1.79 ± 0.081 | 1.87 ± 0.15
GCUCAC | 1.69 ± 0.034 | 1.83 ± 0.12
UCUGUU | 1.636 ± 0.0046 | 1.82 ± 0.12
UCUGUC | 1.75 ± 0.035 | 1.87 ± 0.1
UCUGUG | 1.73 ± 0.051 | 1.91 ± 0.092
GCUUAC | 1.53 ± 0.026 | 1.75 ± 0.075
GCUUAU | 1.6 ± 0.017 | 1.76 ± 0.13
GCGUGC | 1.68 ± 0.0027 | 1.81 ± 0.14
